Patent US10662413B2, “Recombinant DNA polymerase for improved incorporation of nucleotide analogues” (PERSONAL GENOMICS, INC., priority 2016, dated 2020)
Where a chain is given by its changes, count along the chain named. Names may count otherwise.

B1: D480R: 9° N-III mutant D480R, nucleotide binding pocket (protein)
chain: MILDTDYITENGKPVIRVFKKENGEFKIEYDRTFEPYFYALLKDDSAIEDVKKVTAKRHGTVVKVKRAEKVQKKFLGRPIEVWKLYFNHPQDVPAIRDRIRAHPAVVDIYEYDIPFAKRYLIDKGLIPMEGDEELTMLAFAIATLYHEGEEFGTGPILMISYADGSEARVITWKKIDLPYVDVVSTEKEMIKRFLRVVREKDPDVLITYNGDNFDFAYLKKRCEELGIKFTLGRDGSEPKIQRMGDRFAVEVKGRIHFDLYPVIRRTINLPTYTLEAVYEAVFGKPKEKVYAEEIAQAWESGEGLERVARYSMEDAKVTYELGREFFPMEAQLSRLIGQSLWDVSRSSTGNLVEWFLLRKAYKRNELAPNKPDERELARRRGGYAGGYVKEPERGLWDNIVYLDFRSSAVSIIITHNVSPDTLNREGCKEYDVAPEVGHKFCKDFPGFIPSLLGDLLEERQKIKRKMKATVDPLEKKLLRYRQRLIKILANSFYGYYGYAKARWYCKECAESVTAWGREYIEMVIRELEEKFGFKVLYADTDGLHATIPGADAETVKKKAKEFLKYINPKLPGLLELEYEGFYVRGFFVTKKKYAVIDEEGKITTRGLEIVRRDWSEIAKETQARVLEAILKHGDVEEAVRIVKEVTEKLSKYEVPPEKLVIHEQITRDLRDYKATGPHVAVAKRLAARGVKIRPGTVISYIVLKGSGRIGDRAIPADEFDPTKHRYDAEYYIENQVLPAVERILKAFGYRKEDLRYQKTKQVGLGAWLKVKGKK
B2: I486F: 9° N-III mutant I486F, nucleotide binding pocket (protein)
chain: B1 chain with R480D, I486F
B3: I486W: 9° N-III mutant I486W, nucleotide binding pocket (protein)
chain: B1 chain with R480D, I486W
B4: D480H: KOD^exo− mutant D480H (protein)
chain: B1 chain with R480H
B5: D480N: KOD^exo− mutant D480N (protein)
chain: B1 chain with R480N
B6: D480P: 9° N-III mutant D480P, nucleotide binding pocket (protein)
chain: B1 chain with R480P
B7: D480G: 9° N-III mutant D480G, nucleotide binding pocket (protein)
chain: B1 chain with R480G
B8: I486Y: 9° N-III mutant I486Y, nucleotide binding pocket (protein)
chain: B1 chain with R480D, I486Y
B9: I486P: 9° N-III mutant I486P, nucleotide binding pocket (protein)
chain: B1 chain with R480D, I486P
B10: L485F: 9° N-III mutant L485F, nucleotide binding pocket (protein)
chain: B1 chain with R480D, L485F
B11: I486R: 9° N-III mutant I486R, nucleotide binding pocket (protein)
chain: B1 chain with R480D, I486R
B12: V410G: 9° N-III mutant V410G, nucleotide binding pocket (protein)
chain: B1 chain with V410G, R480D
B13: D480I: 9° N-III mutant D480I, nucleotide binding pocket (protein)
chain: B1 chain with R480I
B14: D480M: 9° N-III mutant D480M, nucleotide binding pocket (protein)
chain: B1 chain with R480M
B15: D480A: 9° N-III mutant D480A, nucleotide binding pocket (protein)
chain: B1 chain with R480A
B16: D480W: KOD^exo− mutant D480W (protein)
chain: B1 chain with R480W
B17: I486A: 9° N-III mutant I486A, nucleotide binding pocket (protein)
chain: B1 chain with R480D, I486A
B18: K477F: 9° N-III mutant K477F, nucleotide binding pocket (protein)
chain: B1 chain with K477F, R480D
B19: V410P: 9° N-III mutant V410P, nucleotide binding pocket (protein)
chain: B1 chain with V410P, R480D
B20: V282F: 9° N-III mutant V282F, nucleotide binding pocket (protein)
chain: B1 chain with V282F, R480D
B21: KOD^exo−: KOD^exo− DNA polymerase with mutations at residues 141 and 143 (SEQ ID NO: 5) (protein)
chain: MILDTDYITEDGKPVIRIFKKENGEFKIEYDRTFEPYFYALLKDDSAIEEVKKITAERHGTVVTVKRVEKVQKKFLGRPVEVWKLYFTHPQDVPAIRDKIREHPAVIDIYEYDIPFAKRYLIDKGLVPMEGDEELKMLAFAIATLYHEGEEFAEGPILMISYADEEGARVITWKNVDLPYVDVVSTEREMIKRFLRVVKEKDPDVLITYNGDNFDFAYLKKRCEKLGINFALGRDGSEPKIQRMGDRFAVEVKGRIHFDLYPVIRRTINLPTYTLEAVYEAVFGQPKEKVYAEEITTAWETGENLERVARYSMEDAKVTYELGKEFLPMEAQLSRLIGQSLWDVSRSSTGNLVEWFLLRKAYERNELAPNKPDEKELARRRQSYEGGYVKEPERGLWENIVYLDFRSLYPSIIITHNVSPDTLNREGCKEYDVAPQVGHRFCKDFPGFIPSLLGDLLEERQKIKKKMKATIDPIERKLLDYRQRAIKILANSYYGYYGYARARWYCKECAESVTAWGREYITMTIKEIEEKYGFKVIYSDTDGFFATIPGADAETVKKKAMEFLKYINAKLPGALELEYEGFYKRGFFVTKKKYAVIDEEGKITTRGLEIVRRDWSEIAKETQARVLEALLKDGDVEKAVRIVKEVTEKLSKYEVPPEKLVIHEQITRDLKDYKATGPHVAVAKRLAARGVKIRPGTVISYIVLKGSGRIGDRAIPFDEFDPTKHKYDAEYYIENQVLPAVERILRAFGYRKEDLRYQKTRQVGLSAWLKPKGT
modifications: Thermococcus kodakarensis kod1; KODexo- DNA polymerase

Columns and labels:
[1] = target: THN (Therminator); assay: Polymerase end point (PEP) assay; type: biochemical; details: read-out: Average IC50 ± SD
Method: (§1) Accordingly, the end-point concentration, IC50 value, of the respective nucleotide was calculated.

[2] = target: T1, Bst-Lg (Bst Large fragment DNA polymerase) (Geobacillus stearothermophilus, UniProt P52026); assay: Polymerase end point (PEP) assay; type: biochemical; details: read-out: Average IC50 ± SD
T1 construct: Bst Large fragment DNA polymerase; purchased New England Biolabs
T1 sequence (P52026 289-876 limits assumed): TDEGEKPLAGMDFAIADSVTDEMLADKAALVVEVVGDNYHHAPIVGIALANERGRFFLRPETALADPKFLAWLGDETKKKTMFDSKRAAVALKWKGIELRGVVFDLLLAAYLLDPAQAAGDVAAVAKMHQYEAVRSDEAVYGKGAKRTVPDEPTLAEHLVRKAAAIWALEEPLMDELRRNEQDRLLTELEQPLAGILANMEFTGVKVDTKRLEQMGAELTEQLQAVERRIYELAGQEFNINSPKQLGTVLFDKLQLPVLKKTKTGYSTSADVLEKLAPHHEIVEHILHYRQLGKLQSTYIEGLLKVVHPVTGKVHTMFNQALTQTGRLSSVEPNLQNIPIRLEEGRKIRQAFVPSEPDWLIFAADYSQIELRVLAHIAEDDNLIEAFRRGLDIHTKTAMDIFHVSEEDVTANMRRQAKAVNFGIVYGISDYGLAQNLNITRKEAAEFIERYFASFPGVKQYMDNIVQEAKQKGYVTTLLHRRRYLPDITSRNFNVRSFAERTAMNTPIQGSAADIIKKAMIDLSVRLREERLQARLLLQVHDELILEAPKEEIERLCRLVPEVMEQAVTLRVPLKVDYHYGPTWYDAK
Method: as §1

[3] = target: T2, 9°N-I DNA polymerase (Thermococcus sp., UniProt Q56366, A485L/D141A/E143A); assay: Pre-steady state kinetic assay; type: biochemical, Thermococcus sp. 9° N-7 strain; details: 30° C.
T2 construct: made in house; host or cells: E. coli BL21
Method: The rate of incorporation of the correct base onto the 25/36 mer duplex was determined in a reaction. The reaction was initiated by combining the solution containing the enzyme and DNA substrate with the second solution containing Mg^2+/dNTP. The reaction was quenched with 0.25 M EDTA (final concentration), pH 8.0. A rapid quench instrument (KinTek Instrument Corp., State College, Pa.) was used for reaction times ranging from 20 ms to 20 s.

[4] = target: T3, 9°N-III DNA polymerase (Thermococcus sp., UniProt Q56366, A485L/D141A/E143A/L408S/P410V/Y409A); type: biochemical, Thermococcus sp. 9° N-7 strain; details: PEP assay, read-out: Average IC50 ± SD
T3 construct: 6x histidine tag (C); made in house; host or cells: E. coli BL21
Method: as §1

[5] = target: T4, Klenow (exo-) fragment DNA polymerase (Escherichia coli, UniProt P00582, D355A/E357A); type: biochemical; details: PEP assay, read-out: Average IC50 ± SD
T4 construct: Klenow (exo-) fragment DNA polymerase; purchased New England Biolabs
Method: as §1

[6] = test system: 5′Q-3′-Ga
[7] = test system: 5′Q-3′-Ga; type: biochemical; details: KOD^exo− background

Molecule	conversion rate (C.R.) of extension product [6] [%]	further results
Nc1ncnc2c1ncn2[C@H]1C[C@H](O)[C@@H](COP(=O)(O)OP(=O)(O)OP(=O)(O)O)O1 [dATP]		IC50 [1]: 0.526 ± 0.008 nM; IC50 [2]: 2.54 ± 0.067 nM; Kd [3]: 8000 nM; kpol [3]: 132.4 s⁻¹; kpol/Kd [3]: 1.655e+07 M⁻¹ s⁻¹; IC50 [4]: 14 ± 0.6 nM; IC50 [5]: 0.589 ± 0.008 nM
B1	83	
B2	81	
B3	81	
B4		conversion of 5′Q-3′-Ga [7]: 84%
B5		conversion of 5′Q-3′-Ga [7]: 83%
B6	82	
B7	80	
B8	82	
B9	100	
B10	74	
B11	87	
B12	69	
B13	82	
B14	80	
B15	81	
B16		conversion of 5′Q-3′-Ga [7]: 77%
B17	82	
B18	82	
B19	78	
B20	66	
B21		conversion of 5′Q-3′-Ga [7]: 37%
